Results on 30 sequences are retold here after publication PMC11046469, “Leveraging a Phage-Encoded Noncanonical Amino Acid: A Novel Pathway to Potent and Selective Epigenetic Reader Protein Inhibitors” (ACS Central Science, 2024).

The first test deals with T1, ENL YEATS domain (AviSUMO-ENL YEATS) (Homo sapiens, UniProt Q03111).
T1 construct: encoding ENL YEATS (aa 1−148) was cloned in pET28a-; made in house; host or cells: E. coli BL21(DE3pLysS), co-expressed with BirA (pBirAcm)
T1 sequence (Q03111 1-148): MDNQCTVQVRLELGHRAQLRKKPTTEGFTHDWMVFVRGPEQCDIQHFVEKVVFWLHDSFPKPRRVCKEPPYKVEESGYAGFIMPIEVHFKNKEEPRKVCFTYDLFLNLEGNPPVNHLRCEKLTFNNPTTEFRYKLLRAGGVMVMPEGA
Description: Phage panning of BuK-containing 7-mer library against AviSUMO-ENL YEATS with Illumina NGS abundance. Particulars: sheet ENLR3: round 3 of panning against ENL YEATS; TAG = amber codon (BuK); 7-mer library positions V1-V7. From the text: We utilized a previously established amber-obligate 7-mer phage display library to develop a phage display library enriched with BuK-containing 7-mer peptides. For detailed characterizations, including analysis of amber codon percentages, NNK trinucleotide analysis, and amino acid distribution at each position within the library, please refer to the work of Tharp et al.[10] Furthermore, the comprehensive raw NGS data for the amber-obligate 7-mer phage library can be found in the NCBI’s Sequence Read Archive, under the accession ID PRJNA606283. To produce the BuK-containing 7-mer phage library, the phages were produced in the presence of 5 mM BuK using TOP10 cells harboring the following three plasmids: (1) pADL-gIII, which contains the 7-mer amber-obligate peptide-coding DNA library positioned at the N-terminus of M13 pIII gene; (2) pCDF-BuKRS, which encodes BuKRS and its cognate tRNA^Pyl for the genetic incorporation of BuK at amber codons in the 7-mer library; and (3) M13KO7TAA, a helper phage plasmid engineered to have a TAA mutation at pIII so that its lack of a functional pIII allows an efficient multivalent display of the 7-mer library. The ENL YEATS domain containing an N-terminal AviSUMO-Tag was recombinantly expressed in E. coli together with BirA, a biotin ligase, for site-specific biotinylation at the AviTag. The biotinylated AviSUMO-ENL YEATS was immobilized on streptavidin-coated magnetic beads for panning with the BuK-containing phages. […] Phage libraries collected from the first and third rounds of selection were sequenced using Illumina next generation sequencing (NGS) and all sequenced data are available through the NCBI SRA database (Project PRJNA1041845). To prevent possible sequencing errors from affecting conclusions, sequences were filtered using previously published paired-end processing,[10] where any sequences containing more than one mismatch in the nonlibrary region or any mismatch in the library region were discarded. The NGS data provided DNA sequences encompassing both the library and nonlibrary regions. In our analysis, we included data from the nonlibrary region as a stringent quality control measure to filter out low-quality data. For our analysis, we utilized 51 nucleotides from the NGS output, with 21 nucleotides encoding the library region and an additional 30 nucleotides for the nonlibrary region. […] Among all the sequences, only 85 of them contained more than 100 copies (blue area), while the remaining sequences all had low abundances (<10^2 copies, dark and light gray areas), which constituted 85.2% of the first round population. After three panning rounds, the selection converged to two highly enriched sequences: YDVYCYX (ENL-S1) and WWIIEXG (ENL-S2, X denotes BuK). Out of 551 different unique sequences collected from the third round, ENL-S1 and ENL-S2 represented 85% of the entire library (Figure 2A and Figures S6–S8). Both peptide sequences corresponded to their own unique DNA sequence, rather than there being varying codons encoding the same amino acids (Figure S7). […] Two motifs were found in the majority of sequences with high abundance (greater than 0.1%) (Figure S6). A Y(C/L)Y pattern was identified in the residues adjacent to BuK in four of the eight top sequences. Also, an H(L/Y)(T/V)LFXG (X denotes BuK) motif was observed, albeit at lower abundances, in two of the top sequences. In the initial round of selection, we observed that only a small percentage of phages were eluted, which aligns with typical outcomes in phage selection experiments since only a low copy number of phages can bind to the target.[10],[45] With each successive round of selection, we noted a gradual increase in the percentage of phages eluted. This incremental, rather than sharp, increase was attributed to the intensification of selection pressures, such as the application of more stringent washing protocols. We aimed for the incremental increase to retain potent clones with low copy numbers from the previous selection cycle. […]
Consider QCVPRTAGD, for which the “n (number of NGS reads of the unique amino acid sequence)” value is reported as 5 and the “percent (share of sequence reads)” value was 0.004553%.
The like results for QFGPRTAGD were, in that order, 6 and 0.005464%.
In the same order, the values of QRGPRTAGD are 2 and 0.001821%.
The like results for QYGPRTAGD were, in that order, 2 and 0.001821%.
Turning to RTVYCYTAG, the “n (number of NGS reads of the unique amino acid sequence)” value is recorded as 142 and the “percent (share of sequence reads)” value is on record as 0.1293%.
For the sequence RWIIETAGG, the “n (number of NGS reads of the unique amino acid sequence)” value amounted to 7 and the “percent (share of sequence reads)” value was found to be 0.006374%.
The like results for SCPPRTAGD were, in that order, 10 and 0.009106%.
For the sequence SCVVFTAGI, the “n (number of NGS reads of the unique amino acid sequence)” value amounted to 2 and the “percent (share of sequence reads)” value came out at 0.001821%.
Take SLMMCQTAG: the “n (number of NGS reads of the unique amino acid sequence)” value worked out at 2 and the “percent (share of sequence reads)” value is on record as 0.001821%.
With SMHACTAGT, the “n (number of NGS reads of the unique amino acid sequence)” value came out at 2 and the “percent (share of sequence reads)” value is 0.001821%.
In the same order, the values of SQCTAGECA are 2 and 0.001821%.
In the case of SVIYCYTAG, the “n (number of NGS reads of the unique amino acid sequence)” value was determined as 9 and the “percent (share of sequence reads)” value was 0.008196%.
The like results for SWIIETAGG were, in that order, 5 and 0.004553%.

Still in this test, the particulars now being: sheet ENLR3: round 3 of selection against ENL YEATS; TAG = amber codon (BuK).
For QCSPRTAGD, the “n (number of NGS reads of the 7-mer sequence V1-V7)” value is reported as 1 and the “percent (share of NGS reads of the 7-mer sequence V1-V7)” value is listed as 0.0009106%.
The like results for QTAGERNAC were, in that order, 1 and 0.0009106%.
In the case of QWGPRTAGD, the “n (number of NGS reads of the 7-mer sequence V1-V7)” value came to 1 and the “percent (share of NGS reads of the 7-mer sequence V1-V7)” value turned out to be 0.0009106%.
In the same order, the values of RCGPRTAGD are 1 and 0.0009106%.
The like results for RLTLFTAGG were, in that order, 1 and 0.0009106%.
As for RTAGTESQL, the “n (number of NGS reads of the 7-mer sequence V1-V7)” value was 1 and the “percent (share of NGS reads of the 7-mer sequence V1-V7)” value amounted to 0.0009106%.
As for RTVYCHTAG, the “n (number of NGS reads of the 7-mer sequence V1-V7)” value was determined as 1 and the “percent (share of NGS reads of the 7-mer sequence V1-V7)” value is on record as 0.0009106%.
Consider RWVAGPTAG, for which the “n (number of NGS reads of the 7-mer sequence V1-V7)” value is on record as 1 and the “percent (share of NGS reads of the 7-mer sequence V1-V7)” value came to 0.0009106%.
As for SAVVATAGG, the “n (number of NGS reads of the 7-mer sequence V1-V7)” value came to 1 and the “percent (share of NGS reads of the 7-mer sequence V1-V7)” value came to 0.0009106%.
In the same order, the values of SGVGFTAGS are 1 and 0.0009106%.
For SLERTAGGF, the “n (number of NGS reads of the 7-mer sequence V1-V7)” value is reported as 1 and the “percent (share of NGS reads of the 7-mer sequence V1-V7)” value is recorded as 0.0009106%.
The like results for SLYITFTAG were, in that order, 1 and 0.0009106%.
For SMMTAGSST, the “n (number of NGS reads of the 7-mer sequence V1-V7)” value is 1 and the “percent (share of NGS reads of the 7-mer sequence V1-V7)” value amounted to 0.0009106%.
In the same order, the values of SSGTAGKCV are 1 and 0.0009106%.
The like results for STAGTEIYC were, in that order, 1 and 0.0009106%.
As to STTAGKLFI, the “n (number of NGS reads of the 7-mer sequence V1-V7)” value stood at 1 and the “percent (share of NGS reads of the 7-mer sequence V1-V7)” value is reported as 0.0009106%.
In the same order, the values of STVYCYTAG are 1 and 0.0009106%.
